Measured values published in EP4745153A1, “GLP-1, GIP AND GCG RECEPTOR […] USE THEREOF” (Jiangsu Hengrui Pharmaceuticals Co., Ltd., priority 2023, dated 2025).
Read-outs that look alike come from different tables or passages of the source. Starred links: 1 amine or outer side, 2 acyl side, 3 side chain; linkers in the order of their positions; H or OH if unused. Non-standard residues stand in square brackets, D forms with d. Groups on a side chain read outwards from the residue. No end group written: not given here. *: point of attachment. C20 diacid = O=C(O)CCCCCCCCCCCCCCCCCCC(=O)*; C17 diacid = O=C(O)CCCCCCCCCCCCCCCC(=O)*; γGlu = O=C(O)[C@H](CCC(=O)[*:2])N[*:1]; αMeY = C[C@](N)(Cc1ccc(O)cc1)C(=O)O; αMeL = CC(C)C[C@](C)(N)C(=O)O; αMeK = C[C@](N)(CCCCN)C(=O)O; Iva = CC[C@](C)(N)C(=O)O; AEEA = NCCOCCOCC(=O)O; Aib = CC(C)(N)C(=O)O

T1: human glucose-dependent insulinotropic polypeptide receptor (human, UniProt P48546 22-466)
T1 sequence (looked up): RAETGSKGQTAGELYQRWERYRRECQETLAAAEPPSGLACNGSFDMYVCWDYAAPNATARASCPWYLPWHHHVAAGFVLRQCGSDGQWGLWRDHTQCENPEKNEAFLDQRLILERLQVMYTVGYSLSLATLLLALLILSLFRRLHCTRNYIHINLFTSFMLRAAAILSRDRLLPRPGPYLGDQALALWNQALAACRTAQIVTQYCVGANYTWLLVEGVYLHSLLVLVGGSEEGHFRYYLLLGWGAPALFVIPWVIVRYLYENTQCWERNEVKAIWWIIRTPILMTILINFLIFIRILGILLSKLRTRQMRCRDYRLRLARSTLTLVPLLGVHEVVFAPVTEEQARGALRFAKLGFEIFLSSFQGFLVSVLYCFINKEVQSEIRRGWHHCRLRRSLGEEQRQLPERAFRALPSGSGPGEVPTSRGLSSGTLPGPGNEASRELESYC

B1: Compound No. 0132 (peptide)
peptide: H[Aib]HGTFTSDYS[αMeK]ILEK([AEEA-AEEA-γGlu-C20 diacid])KAA[Iva]EFVEWLIEGGPSSGAPPPS-NH2
modifications: N-terminus assumed
SMILES: CC[C@H](C)[C@H](NC(=O)[C@H](CC(C)C)NC(=O)[C@H](Cc1c[nH]c2ccccc12)NC(=O)[C@H](CCC(=O)O)NC(=O)[C@@H](NC(=O)[C@H](Cc1ccccc1)NC(=O)[C@H](CCC(=O)O)NC(=O)[C@](C)(CC)NC(=O)[C@H](C)NC(=O)[C@H](C)NC(=O)[C@H](CCCCN)NC(=O)[C@H](CCCCNC(=O)COCCOCCNC(=O)COCCOCCNC(=O)CC[C@H](NC(=O)CCCCCCCCCCCCCCCCCCC(=O)O)C(=O)O)NC(=O)[C@H](CCC(=O)O)NC(=O)[C@H](CC(C)C)NC(=O)[C@@H](NC(=O)[C@](C)(CCCCN)NC(=O)[C@H](CO)NC(=O)[C@H](Cc1ccc(O)cc1)NC(=O)[C@H](CC(=O)O)NC(=O)[C@H](CO)NC(=O)[C@@H](NC(=O)[C@H](Cc1ccccc1)NC(=O)[C@@H](NC(=O)CNC(=O)[C@H](Cc1c[nH]cn1)NC(=O)C(C)(C)NC(=O)[C@@H](N)Cc1c[nH]cn1)[C@@H](C)O)[C@@H](C)O)[C@@H](C)CC)C(C)C)C(=O)N[C@@H](CCC(=O)O)C(=O)NCC(=O)NCC(=O)N1CCC[C@H]1C(=O)N[C@@H](CO)C(=O)N[C@@H](CO)C(=O)NCC(=O)N[C@@H](C)C(=O)N1CCC[C@H]1C(=O)N1CCC[C@H]1C(=O)N1CCC[C@H]1C(=O)N[C@@H](CO)C(N)=O
B2: Compound No. 0131 (peptide)
peptide: H[Aib]HGTFTSDYS[αMeK]LLEK([AEEA-AEEA-γGlu-C20 diacid])KAA[Iva]EFVEWLIEGGPSSGAPPPS-NH2
modifications: N-terminus assumed
SMILES: CC[C@H](C)[C@H](NC(=O)[C@H](CC(C)C)NC(=O)[C@H](Cc1c[nH]c2ccccc12)NC(=O)[C@H](CCC(=O)O)NC(=O)[C@@H](NC(=O)[C@H](Cc1ccccc1)NC(=O)[C@H](CCC(=O)O)NC(=O)[C@](C)(CC)NC(=O)[C@H](C)NC(=O)[C@H](C)NC(=O)[C@H](CCCCN)NC(=O)[C@H](CCCCNC(=O)COCCOCCNC(=O)COCCOCCNC(=O)CC[C@H](NC(=O)CCCCCCCCCCCCCCCCCCC(=O)O)C(=O)O)NC(=O)[C@H](CCC(=O)O)NC(=O)[C@H](CC(C)C)NC(=O)[C@H](CC(C)C)NC(=O)[C@](C)(CCCCN)NC(=O)[C@H](CO)NC(=O)[C@H](Cc1ccc(O)cc1)NC(=O)[C@H](CC(=O)O)NC(=O)[C@H](CO)NC(=O)[C@@H](NC(=O)[C@H](Cc1ccccc1)NC(=O)[C@@H](NC(=O)CNC(=O)[C@H](Cc1c[nH]cn1)NC(=O)C(C)(C)NC(=O)[C@@H](N)Cc1c[nH]cn1)[C@@H](C)O)[C@@H](C)O)C(C)C)C(=O)N[C@@H](CCC(=O)O)C(=O)NCC(=O)NCC(=O)N1CCC[C@H]1C(=O)N[C@@H](CO)C(=O)N[C@@H](CO)C(=O)NCC(=O)N[C@@H](C)C(=O)N1CCC[C@H]1C(=O)N1CCC[C@H]1C(=O)N1CCC[C@H]1C(=O)N[C@@H](CO)C(N)=O
B3: Compound No. 0104 (peptide)
peptide: H[Aib]HGTFTSDYS[αMeK]YLEK([AEEA-AEEA-γGlu-C20 diacid])KAAQEFVEWLLAGGPSSGAPPPS-NH2
modifications: N-terminus assumed
SMILES: CC(C)C[C@H](NC(=O)[C@H](CC(C)C)NC(=O)[C@H](Cc1c[nH]c2ccccc12)NC(=O)[C@H](CCC(=O)O)NC(=O)[C@@H](NC(=O)[C@H](Cc1ccccc1)NC(=O)[C@H](CCC(=O)O)NC(=O)[C@H](CCC(N)=O)NC(=O)[C@H](C)NC(=O)[C@H](C)NC(=O)[C@H](CCCCN)NC(=O)[C@H](CCCCNC(=O)COCCOCCNC(=O)COCCOCCNC(=O)CC[C@H](NC(=O)CCCCCCCCCCCCCCCCCCC(=O)O)C(=O)O)NC(=O)[C@H](CCC(=O)O)NC(=O)[C@H](CC(C)C)NC(=O)[C@H](Cc1ccc(O)cc1)NC(=O)[C@](C)(CCCCN)NC(=O)[C@H](CO)NC(=O)[C@H](Cc1ccc(O)cc1)NC(=O)[C@H](CC(=O)O)NC(=O)[C@H](CO)NC(=O)[C@@H](NC(=O)[C@H](Cc1ccccc1)NC(=O)[C@@H](NC(=O)CNC(=O)[C@H](Cc1c[nH]cn1)NC(=O)C(C)(C)NC(=O)[C@@H](N)Cc1c[nH]cn1)[C@@H](C)O)[C@@H](C)O)C(C)C)C(=O)N[C@@H](C)C(=O)NCC(=O)NCC(=O)N1CCC[C@H]1C(=O)N[C@@H](CO)C(=O)N[C@@H](CO)C(=O)NCC(=O)N[C@@H](C)C(=O)N1CCC[C@H]1C(=O)N1CCC[C@H]1C(=O)N1CCC[C@H]1C(=O)N[C@@H](CO)C(N)=O
B4: Compound No. 0139 (peptide)
peptide: H[Aib]HGTFTSDYSI[αMeL]LEK([AEEA-AEEA-γGlu-C20 diacid])KAAQEFVEWLLA[dE]GPSSGAPPPS-NH2
modifications: N-terminus assumed
SMILES: CC[C@H](C)[C@H](NC(=O)[C@H](CO)NC(=O)[C@H](Cc1ccc(O)cc1)NC(=O)[C@H](CC(=O)O)NC(=O)[C@H](CO)NC(=O)[C@@H](NC(=O)[C@H](Cc1ccccc1)NC(=O)[C@@H](NC(=O)CNC(=O)[C@H](Cc1c[nH]cn1)NC(=O)C(C)(C)NC(=O)[C@@H](N)Cc1c[nH]cn1)[C@@H](C)O)[C@@H](C)O)C(=O)N[C@@](C)(CC(C)C)C(=O)N[C@@H](CC(C)C)C(=O)N[C@@H](CCC(=O)O)C(=O)N[C@@H](CCCCNC(=O)COCCOCCNC(=O)COCCOCCNC(=O)CC[C@H](NC(=O)CCCCCCCCCCCCCCCCCCC(=O)O)C(=O)O)C(=O)N[C@@H](CCCCN)C(=O)N[C@@H](C)C(=O)N[C@@H](C)C(=O)N[C@@H](CCC(N)=O)C(=O)N[C@@H](CCC(=O)O)C(=O)N[C@@H](Cc1ccccc1)C(=O)N[C@H](C(=O)N[C@@H](CCC(=O)O)C(=O)N[C@@H](Cc1c[nH]c2ccccc12)C(=O)N[C@@H](CC(C)C)C(=O)N[C@@H](CC(C)C)C(=O)N[C@@H](C)C(=O)N[C@H](CCC(=O)O)C(=O)NCC(=O)N1CCC[C@H]1C(=O)N[C@@H](CO)C(=O)N[C@@H](CO)C(=O)NCC(=O)N[C@@H](C)C(=O)N1CCC[C@H]1C(=O)N1CCC[C@H]1C(=O)N1CCC[C@H]1C(=O)N[C@@H](CO)C(N)=O)C(C)C
B5: Compound No. 0106 (peptide)
peptide: H[Aib]HGTFTSDYSK[αMeY]LEK([AEEA-AEEA-γGlu-C17 diacid])KAAQEFVEWLLAGGPSSGAPPPS-NH2
modifications: N-terminus assumed
SMILES: CC(C)C[C@H](NC(=O)[C@H](CC(C)C)NC(=O)[C@H](Cc1c[nH]c2ccccc12)NC(=O)[C@H](CCC(=O)O)NC(=O)[C@@H](NC(=O)[C@H](Cc1ccccc1)NC(=O)[C@H](CCC(=O)O)NC(=O)[C@H](CCC(N)=O)NC(=O)[C@H](C)NC(=O)[C@H](C)NC(=O)[C@H](CCCCN)NC(=O)[C@H](CCCCNC(=O)COCCOCCNC(=O)COCCOCCNC(=O)CC[C@H](NC(=O)CCCCCCCCCCCCCCCC(=O)O)C(=O)O)NC(=O)[C@H](CCC(=O)O)NC(=O)[C@H](CC(C)C)NC(=O)[C@](C)(Cc1ccc(O)cc1)NC(=O)[C@H](CCCCN)NC(=O)[C@H](CO)NC(=O)[C@H](Cc1ccc(O)cc1)NC(=O)[C@H](CC(=O)O)NC(=O)[C@H](CO)NC(=O)[C@@H](NC(=O)[C@H](Cc1ccccc1)NC(=O)[C@@H](NC(=O)CNC(=O)[C@H](Cc1c[nH]cn1)NC(=O)C(C)(C)NC(=O)[C@@H](N)Cc1c[nH]cn1)[C@@H](C)O)[C@@H](C)O)C(C)C)C(=O)N[C@@H](C)C(=O)NCC(=O)NCC(=O)N1CCC[C@H]1C(=O)N[C@@H](CO)C(=O)N[C@@H](CO)C(=O)NCC(=O)N[C@@H](C)C(=O)N1CCC[C@H]1C(=O)N1CCC[C@H]1C(=O)N1CCC[C@H]1C(=O)N[C@@H](CO)C(N)=O

How the values were obtained:
Assay in all cases: cell-based or functional assay
[1] = target: T2, human glucagon-like peptide-1 receptor (human, UniProt P43220 24-463)
[2] = target: T1, human glucose-dependent insulinotropic …
[3] = target: T3, human glucagon receptor (human, UniProt P47871 26-477)
[4] = target: T2, human glucagon-like peptide-1 receptor; remark: listed apart in the source
[5] = target: T1, human glucose-dependent insulinotropic …; remark: listed apart in the source
[6] = target: T3, human glucagon receptor; remark: listed apart in the source
[7] = target: T2, human glucagon-like peptide-1 receptor; remark: listed apart in the source
[8] = target: T1, human glucose-dependent insulinotropic …; remark: listed apart in the source
[9] = target: T3, human glucagon receptor; remark: listed apart in the source

T3 sequence (P47871 26-477): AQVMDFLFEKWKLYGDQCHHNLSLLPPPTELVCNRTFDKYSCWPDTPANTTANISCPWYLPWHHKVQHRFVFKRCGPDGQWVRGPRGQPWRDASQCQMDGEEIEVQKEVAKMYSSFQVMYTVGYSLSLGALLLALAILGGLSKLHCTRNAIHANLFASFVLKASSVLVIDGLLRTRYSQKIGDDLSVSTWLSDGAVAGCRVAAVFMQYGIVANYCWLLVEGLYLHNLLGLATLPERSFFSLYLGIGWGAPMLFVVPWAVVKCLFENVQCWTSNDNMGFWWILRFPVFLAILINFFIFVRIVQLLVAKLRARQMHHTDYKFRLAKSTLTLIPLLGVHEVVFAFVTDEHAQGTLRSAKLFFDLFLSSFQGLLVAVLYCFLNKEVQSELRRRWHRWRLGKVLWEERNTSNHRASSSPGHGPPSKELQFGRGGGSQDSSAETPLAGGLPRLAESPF

Binder	Activity against human GLP-1R (EC50 nM) [1]	Activity against human GIPR (EC50 nM) [2]	Activity against human GCGR (EC50 nM) [3]	other results
B1	0.024 nM	0.001 nM	0.03 nM	
Y[Aib]QGTFTSDYS[αMeK]LLEK([AEEA-AEEA-γGlu-C20 diacid])KAA[Iva]EFVEWLLAGGPSSGAPPPS-NH2 [Compound No. 0127]	0.132 nM	0.0007 nM	0.037 nM	
B2	0.02 nM	0.0007 nM	0.026 nM	
Y[Aib]QGTFTSDYS[αMeK]ILEK([AEEA-AEEA-γGlu-C20 diacid])KAA[Iva]EFVEWLLAGGPSSGAPPPS-NH2 [Compound No. 0129]	0.159 nM	0.002 nM	0.067 nM	
B3				Activity against human GLP-1R (EC50 nM) [4]: 0.01 nM; Activity against human GIPR (EC50 nM) [5]: 0.016 nM; Activity against human GCGR (EC50 nM) [6]: 0.037 nM
B4				Activity against human GLP-1R (EC50 nM) [7]: 0.043 nM; Activity against human GIPR (EC50 nM) [8]: 0.007 nM; Activity against human GCGR (EC50 nM) [9]: 0.43 nM
H[Aib]HGTFTSDYS[αMeK]ILEK([AEEA-AEEA-γGlu-C20 diacid])QAA[Iva]EFVEWLLAGGPSSGAPPPS-NH2 [Compound No. 0130]	0.048 nM	0.0005 nM	0.03 nM	
B5				Activity against human GLP-1R (EC50 nM) [4]: 0.03 nM; Activity against human GIPR (EC50 nM) [5]: 0.027 nM; Activity against human GCGR (EC50 nM) [6]: 0.095 nM
